# Experimental data as given in patent US7470668B2, “Method of use of specific natriuretic peptide receptor c ligands, transgenic non-human mammals expressing specific natriuretic peptide receptor c antagonists and cells thereof” (Enobia Pharma Inc., priority 2005, dated 2008).
# T1: endogenous GC-A (Homo sapiens, UniProt P16066)
# T1 sequence (P16066 33-1061): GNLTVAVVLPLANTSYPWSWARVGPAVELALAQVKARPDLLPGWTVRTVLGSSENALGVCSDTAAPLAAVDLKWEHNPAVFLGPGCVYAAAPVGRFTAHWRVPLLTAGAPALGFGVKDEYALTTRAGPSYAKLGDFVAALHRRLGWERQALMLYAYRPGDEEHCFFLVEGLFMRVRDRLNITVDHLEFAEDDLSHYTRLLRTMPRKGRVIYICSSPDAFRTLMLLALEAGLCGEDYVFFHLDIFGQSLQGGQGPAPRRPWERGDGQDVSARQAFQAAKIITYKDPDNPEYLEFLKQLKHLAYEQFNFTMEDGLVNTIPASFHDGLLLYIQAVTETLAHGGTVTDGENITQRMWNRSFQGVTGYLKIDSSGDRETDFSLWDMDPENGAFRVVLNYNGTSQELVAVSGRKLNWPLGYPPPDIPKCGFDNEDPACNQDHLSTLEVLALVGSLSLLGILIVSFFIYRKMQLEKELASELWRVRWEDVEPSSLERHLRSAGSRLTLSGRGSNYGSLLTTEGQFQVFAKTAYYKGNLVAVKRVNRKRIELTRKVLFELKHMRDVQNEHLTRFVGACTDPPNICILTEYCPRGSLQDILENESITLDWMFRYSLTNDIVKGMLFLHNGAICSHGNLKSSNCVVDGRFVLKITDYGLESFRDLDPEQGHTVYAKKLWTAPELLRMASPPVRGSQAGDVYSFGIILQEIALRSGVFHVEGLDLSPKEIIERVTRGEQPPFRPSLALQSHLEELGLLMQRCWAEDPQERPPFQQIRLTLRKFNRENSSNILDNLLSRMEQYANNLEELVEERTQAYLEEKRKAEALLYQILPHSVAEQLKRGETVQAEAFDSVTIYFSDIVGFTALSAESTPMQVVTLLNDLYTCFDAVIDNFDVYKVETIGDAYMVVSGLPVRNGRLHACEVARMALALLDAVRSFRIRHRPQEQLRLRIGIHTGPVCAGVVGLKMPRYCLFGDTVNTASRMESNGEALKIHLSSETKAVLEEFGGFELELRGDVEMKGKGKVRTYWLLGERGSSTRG
# B1: rhOstn[27-133]: N-terminal 6 histidine-tagged recombinant human Ostn amino acids 27-133 produced in E.coli, SEQ ID NO: 57 (protein)
# chain: SVDVTTTEAFDSGVIDVQSTPTVREEKSATDLTAKLLLLDELVSLENDVIETKKKRSFSGFGSPLDRLSAGSVDHKGKQRKVVDHPKRRFGIPMDRIGRNRLSNSRG
# modifications: N-terminal His6 tag; recombinant mature osteocrin
# Legend:
# OVX rat = assay: Aged rat ovariectomy osteoporosis model, femoral BMD; assay type: in vivo; settings: daily sub-cutaneous injections for 4 weeks, started 4 weeks post-OVX
# Source text: The most widely used non-primate model for pre-clinical osteoporosis studies is the aged rat ovariectomy model (OVX rat). In this model, rapid trabecular bone loss occurs within the first month after ovariectomy (OVX) with an upregulation of both osteoblast and osteoclast activity resulting in increased bone turnover. However, similar to osteoporosis, the levels of osteoclast activity exceed those of osteoblast activity resulting in an imbalance in remodelling and consequently bone loss. […]
# Thus, for the testing of potential therapeutic compounds in such a model one has two choices of approach. […] Efficacy can then be measured by assessing the ability of the compound to replace already lost bone. […]
# The second approach was adopted to allow the Ostn's therapeutic potential through both anabolic and anti-resorptive efficacies to be assessed. […] Rats were left for a 4-week period following ovariectomy or sham-operation for bone loss to occur and at this point bone loss was assessed by X-ray and DEXA before proceeding with the experiment (groups 1+2). […]
# FIG. 10 represents the femoral BMD (i.e. The amount of mineralized bone tissue in a given area, usually calculated as grams per square centimeter) as measured by Piximus™ on excised femurs fixed in 70% ethanol. […]
# endogenous GC-A = biological target: T1, endogenous GC-A; assay: ANP-stimulated cGMP in GFP-transfected HEK293 cells (endogenous GC-A); settings: co-incubation with 10 nM peptide (data not shown)
molecule,measurement,setting,value
B1,gain in femoral BMD over OVX-saline or OVX-mock treated rats,OVX rat,6%
same,effect on ANP signalling,endogenous GC-A,no effect
